System: Histone H3;Histone H4 (His6-TEV) (Drosophila melanogaster;Drosophila melanogaster)
Experiment: restriction enzyme protection
Details: purified tetrasome, Wheat germ cell-free co-expression with NAP1 at 26 C for 6 h, TALON purification in 10 mM Tris/HCl pH 7.4, 40 mM NaCl (elution 250 mM imidazole), 6% native …

601_185bp
binding signal (% protection from PmlI) (37 C): 81
binding signal (% protection from BsiWI) (55 C): 93.6

Reference: article PMC8564334
